The results in this text go back to patent publication US20130156786A1 (Sanofi, published 2013).

For orientation: IC50 means the concentration needed to halve the response being measured. Broadly, the Kd is the constant that tells how readily two partners part at equilibrium. The koff is the rate constant with which the complex falls apart. The term kon denotes the second-order rate constant of association.

In experiment [1] the target is T1, human α2β1 integrin on human platelets (human, UniProt P17301 30-1181; P05556 21-798). Description: cell-based or functional assay.
Experiment [2] has as its target T1, human α2β1 integrin on human platelets. Description: cell-based or functional assay. This is another data set of the same source.
For experiment [3] the target is unchanged. Description: cell-based or functional assay. The source holds these as a separate data set.
Experiment [4] concerns the target T2, α2-I-domain GST aa 140-339 (human, UniProt P17301 169-368).
T2 construct: May be the same protein as m4; also called I-domain of integrin α2β1 integrin; not shown: GST
T2 sequence: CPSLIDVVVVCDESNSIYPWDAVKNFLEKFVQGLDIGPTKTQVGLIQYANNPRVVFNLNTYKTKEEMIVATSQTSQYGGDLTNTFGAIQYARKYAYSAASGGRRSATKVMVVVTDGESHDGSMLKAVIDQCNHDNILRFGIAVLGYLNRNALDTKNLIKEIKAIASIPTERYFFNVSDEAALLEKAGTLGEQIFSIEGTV
Description: solid phase assay: inhibition of biotinylated collagen binding to coated α2-I-domain. Here is the method:
For the Solid Phase Assay, integrin (α₂-I-domain: α₂-I-domain GST aa 140-339 in TBS/5 mM Mn²⁺, 50 μl/well) was immobilized on 96-well plate (Corning Costar, 3690), at room temperature overnight. Then, 25 μl/well of blocking solution (5% BSA (crude) (A7906), 1×TBS) were added and discarded. 200 μl/well of blocking solution were added and left for 3 h at room temperature. After a washing step (3 times with 200 μl/well binding buffer: 1×TBS and 0.1% BSA (A7638) and 2 mM Mn²⁺; TBS: 150 mM NaCl, 25 mM Tris (Fluka 93371) pH7.4), samples were incubated at RT for 3 h stationary with 50 μl of:
After a washing step (3 times with 200 μl/well binding buffer), samples were incubated with 50 μl/well ExtrAvidin Peroxidase (Peroxidase conjugate, Sigma E2886; 1:500 in binding buffer) for 30 min at RT and again washed 4 times with 200 μl/well binding buffer. […]

Experiment [5] addresses T3, human integrin α2 I domain, recombinantly expressed in E. coli (human, UniProt P17301 169-368, limits assumed).
T3 construct: Analyte of the Biacore experiments; also called integrin α2β1 I-domain; integrin I-domain
T3 sequence: T2 sequence
Description: SPR Biacore 3000, antibody immobilised by amine coupling, I-domain as analyte, 1:1 model with mass transfer. The source says:
(§1) Surface plasmon resonance technology on a Biacore 3000 (GE Healthcare) was used for detailed kinetic characterisation of the purified antibody and the corresponding Fab fragment. A direct binding assay was used with the anti-integrin antibody or the Fab fragment as the ligand and the integrin α2β1 I-domain as analyte. Typically, 600 RU of antibody or Fab fragment were immobilised on a research grade CMS chip by amine reactive coupling, resulting in an Rmax of 80 and 140 RU for the I domain bound to the antibody and the Fab fragment, respectively. Binding kinetics were measured over a concentration range between 0.4 to 28 nM I-domain in HBS-P buffer supplemented with 4 mM MgCl2 (10 mM HEPES pH 7.4, 150 mM NaCl, 0.005% Surfactant P20) at a flow rate of 30 μl/min. Chip surfaces were regenerated with 10 mM glycine pH 2.2. Kinetic parameters were analysed and calculated in the BIAevaluation program package (version 4.1) using a flow cell without immobilised anti-integrin antibody or Fab fragment as reference. A 1:1 binding model with mass transfer was applied for a global fit of the data for curves corresponding to analyte concentrations from 0.4-28 nM […].
(SPR reads the build-up and loss of mass on a sensor chip optically.)

In experiment [6] the target is T4, recombinantly expressed integrin α2β1 (human, UniProt P17301 30-1132; P05556 21-728, limits assumed).
T4 construct: The assay paragraph gives neither species nor construct limits; also called a2β1; recombinant α2 integrin
Kind of experiment: solid phase assay: inhibition of biotinylated collagen binding to coated α2β1.

The target in experiment [7] is T3, human integrin α2 I domain, …. Description: SPR Biacore 3000, Fab immobilised by amine coupling, I-domain as analyte, 1:1 model with mass transfer.
From the text: as §1

In experiment [8] the target is T4, recombinantly expressed integrin α2β1. Kind of experiment: solid phase assay: inhibition of biotinylated collagen binding to coated α2β1, 4% HSA.

Substitutions are numbered along the chain they refer to. Several values for one entry are separate records, joined by “and”; a condition that tells them apart may be missing. Identical values can stand only once.

T4 sequence (P17301 30-1132 limits assumed, chain 1 of 2): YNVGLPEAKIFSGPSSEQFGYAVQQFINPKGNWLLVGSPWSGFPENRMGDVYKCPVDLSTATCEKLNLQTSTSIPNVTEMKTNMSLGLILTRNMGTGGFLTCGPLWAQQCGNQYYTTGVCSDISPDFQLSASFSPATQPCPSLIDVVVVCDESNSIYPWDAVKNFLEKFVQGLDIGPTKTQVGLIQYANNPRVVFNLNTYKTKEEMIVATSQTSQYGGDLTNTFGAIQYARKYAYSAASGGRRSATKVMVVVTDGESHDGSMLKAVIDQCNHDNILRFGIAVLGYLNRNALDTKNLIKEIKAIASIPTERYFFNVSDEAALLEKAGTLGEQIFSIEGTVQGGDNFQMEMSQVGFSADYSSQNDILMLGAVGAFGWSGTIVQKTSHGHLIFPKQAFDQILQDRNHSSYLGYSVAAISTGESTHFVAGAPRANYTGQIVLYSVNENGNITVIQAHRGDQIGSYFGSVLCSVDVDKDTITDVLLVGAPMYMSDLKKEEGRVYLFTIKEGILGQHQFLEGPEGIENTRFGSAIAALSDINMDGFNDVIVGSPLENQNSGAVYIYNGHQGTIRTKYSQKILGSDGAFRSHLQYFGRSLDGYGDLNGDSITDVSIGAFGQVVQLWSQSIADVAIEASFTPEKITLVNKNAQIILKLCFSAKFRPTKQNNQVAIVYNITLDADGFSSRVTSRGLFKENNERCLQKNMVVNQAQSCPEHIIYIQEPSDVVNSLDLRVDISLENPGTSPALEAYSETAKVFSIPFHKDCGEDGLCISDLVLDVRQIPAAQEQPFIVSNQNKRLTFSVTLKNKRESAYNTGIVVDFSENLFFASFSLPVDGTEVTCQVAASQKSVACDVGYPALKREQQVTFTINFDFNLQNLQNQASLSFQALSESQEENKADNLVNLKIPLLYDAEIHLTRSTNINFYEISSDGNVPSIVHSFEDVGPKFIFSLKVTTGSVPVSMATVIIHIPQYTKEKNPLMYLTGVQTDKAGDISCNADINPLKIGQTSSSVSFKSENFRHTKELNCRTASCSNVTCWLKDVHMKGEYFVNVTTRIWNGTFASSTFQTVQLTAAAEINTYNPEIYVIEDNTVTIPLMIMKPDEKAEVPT
T4 sequence (P05556 21-728 limits assumed, chain 2 of 2): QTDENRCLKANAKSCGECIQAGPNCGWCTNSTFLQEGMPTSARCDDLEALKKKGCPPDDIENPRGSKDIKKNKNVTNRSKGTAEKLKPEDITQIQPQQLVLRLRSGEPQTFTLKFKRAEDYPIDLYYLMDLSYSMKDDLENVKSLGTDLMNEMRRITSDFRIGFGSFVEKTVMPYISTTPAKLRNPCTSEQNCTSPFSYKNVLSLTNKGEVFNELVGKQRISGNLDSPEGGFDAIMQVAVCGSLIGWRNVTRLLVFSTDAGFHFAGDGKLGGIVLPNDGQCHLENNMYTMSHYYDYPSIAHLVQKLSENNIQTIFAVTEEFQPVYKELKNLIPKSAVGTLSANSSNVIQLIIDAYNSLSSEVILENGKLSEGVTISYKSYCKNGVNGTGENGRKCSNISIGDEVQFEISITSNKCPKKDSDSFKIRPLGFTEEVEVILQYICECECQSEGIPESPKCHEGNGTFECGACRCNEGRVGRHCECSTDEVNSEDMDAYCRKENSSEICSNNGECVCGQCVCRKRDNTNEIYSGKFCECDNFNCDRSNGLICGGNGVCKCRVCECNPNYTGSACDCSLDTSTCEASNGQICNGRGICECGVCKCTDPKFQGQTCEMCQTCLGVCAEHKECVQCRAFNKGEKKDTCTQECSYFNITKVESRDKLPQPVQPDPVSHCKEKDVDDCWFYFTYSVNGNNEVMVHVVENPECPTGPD
T1 sequence (P17301 30-1181 limits assumed, chain 1 of 2): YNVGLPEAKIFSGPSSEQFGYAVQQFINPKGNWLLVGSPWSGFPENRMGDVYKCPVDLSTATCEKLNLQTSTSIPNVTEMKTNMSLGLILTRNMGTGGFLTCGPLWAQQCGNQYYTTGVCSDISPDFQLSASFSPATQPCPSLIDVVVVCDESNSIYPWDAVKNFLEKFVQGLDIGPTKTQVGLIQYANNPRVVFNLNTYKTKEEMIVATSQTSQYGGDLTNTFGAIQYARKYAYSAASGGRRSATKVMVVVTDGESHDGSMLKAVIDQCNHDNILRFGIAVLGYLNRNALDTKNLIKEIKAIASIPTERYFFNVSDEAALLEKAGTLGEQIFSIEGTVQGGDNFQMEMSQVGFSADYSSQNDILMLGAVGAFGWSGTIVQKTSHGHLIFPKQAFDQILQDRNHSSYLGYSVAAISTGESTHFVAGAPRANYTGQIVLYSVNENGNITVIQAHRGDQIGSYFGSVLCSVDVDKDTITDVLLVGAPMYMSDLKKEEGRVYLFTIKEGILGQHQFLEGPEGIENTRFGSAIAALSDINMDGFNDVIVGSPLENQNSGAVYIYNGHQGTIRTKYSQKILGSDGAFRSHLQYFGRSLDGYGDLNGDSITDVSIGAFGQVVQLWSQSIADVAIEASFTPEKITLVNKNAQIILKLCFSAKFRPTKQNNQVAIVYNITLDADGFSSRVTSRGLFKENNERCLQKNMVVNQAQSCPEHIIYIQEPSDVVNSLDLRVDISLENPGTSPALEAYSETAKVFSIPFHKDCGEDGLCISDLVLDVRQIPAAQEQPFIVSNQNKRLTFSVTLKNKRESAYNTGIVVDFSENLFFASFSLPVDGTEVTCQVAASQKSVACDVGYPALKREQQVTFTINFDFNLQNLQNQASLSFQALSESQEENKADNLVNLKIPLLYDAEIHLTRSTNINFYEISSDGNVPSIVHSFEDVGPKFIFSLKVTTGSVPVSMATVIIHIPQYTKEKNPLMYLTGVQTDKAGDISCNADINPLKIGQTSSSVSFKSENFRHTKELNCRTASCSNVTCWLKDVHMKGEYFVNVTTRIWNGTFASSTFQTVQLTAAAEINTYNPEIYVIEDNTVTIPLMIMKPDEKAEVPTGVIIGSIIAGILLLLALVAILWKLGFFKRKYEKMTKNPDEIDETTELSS
T1 sequence (P05556 21-798 limits assumed, chain 2 of 2): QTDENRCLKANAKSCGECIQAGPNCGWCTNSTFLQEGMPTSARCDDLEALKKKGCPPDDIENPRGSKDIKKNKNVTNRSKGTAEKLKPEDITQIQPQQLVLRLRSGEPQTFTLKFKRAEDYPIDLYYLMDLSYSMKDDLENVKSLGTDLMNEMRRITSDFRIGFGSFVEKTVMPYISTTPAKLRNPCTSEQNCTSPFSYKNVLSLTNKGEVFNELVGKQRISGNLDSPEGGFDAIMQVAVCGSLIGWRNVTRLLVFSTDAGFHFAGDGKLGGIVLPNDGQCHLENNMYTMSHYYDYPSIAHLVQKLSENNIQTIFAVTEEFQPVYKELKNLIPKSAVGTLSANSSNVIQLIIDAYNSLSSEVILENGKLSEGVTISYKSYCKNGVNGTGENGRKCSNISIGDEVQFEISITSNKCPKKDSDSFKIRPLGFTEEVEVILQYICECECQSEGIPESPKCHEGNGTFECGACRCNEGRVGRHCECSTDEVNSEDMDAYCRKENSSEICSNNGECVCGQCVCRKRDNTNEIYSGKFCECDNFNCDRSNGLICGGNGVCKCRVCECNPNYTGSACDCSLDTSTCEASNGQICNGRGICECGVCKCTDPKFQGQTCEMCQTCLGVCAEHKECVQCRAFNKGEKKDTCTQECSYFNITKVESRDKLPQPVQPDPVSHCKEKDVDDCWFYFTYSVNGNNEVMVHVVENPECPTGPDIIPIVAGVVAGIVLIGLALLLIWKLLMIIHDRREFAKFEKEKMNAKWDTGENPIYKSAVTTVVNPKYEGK

B1: humanized anti-α2-integrin mAb LC5/HC7 (antibody, IgG4, V domains shown)
VH: QVQLVQSGAEVKKPGASVKVSCKASGYTFTSYWMNWVRQAPGQGLEWIGRIDPSDSETHYAQKFQGRATLTVDKSTSTAYMELSSLRSEDTAVYYCAKVGRGYFDYWGQGTLVTVSS
VL: NIVLTQSPASLAVSPGQRATITCRASESVESYGNSFIYWYQQKPGQPPKLLIYLASNLASGVPARFSGSGSRTDFTLTINPVEADDTANYYCQQNNEDPYTFGGGTKLEIK
B1: in experiment [1], the “Inhibition of binding of washed platelets to collagen, IC50” value (“Inhibition of binding … to collagen, IC50” for short) is 0.031 µg/mL. Also, the “Inhibition of binding of platelets to collagen in platelet rich plasma, MW IC50” value (shortened to “Inhibition of binding of platelets”) in experiment [2] stood at 0.224 µg/mL.

B2: chimeric anti α2-integrin-IgG4 (murine variable domains on human IGKC and mutated human IGHG4) (antibody)
heavy: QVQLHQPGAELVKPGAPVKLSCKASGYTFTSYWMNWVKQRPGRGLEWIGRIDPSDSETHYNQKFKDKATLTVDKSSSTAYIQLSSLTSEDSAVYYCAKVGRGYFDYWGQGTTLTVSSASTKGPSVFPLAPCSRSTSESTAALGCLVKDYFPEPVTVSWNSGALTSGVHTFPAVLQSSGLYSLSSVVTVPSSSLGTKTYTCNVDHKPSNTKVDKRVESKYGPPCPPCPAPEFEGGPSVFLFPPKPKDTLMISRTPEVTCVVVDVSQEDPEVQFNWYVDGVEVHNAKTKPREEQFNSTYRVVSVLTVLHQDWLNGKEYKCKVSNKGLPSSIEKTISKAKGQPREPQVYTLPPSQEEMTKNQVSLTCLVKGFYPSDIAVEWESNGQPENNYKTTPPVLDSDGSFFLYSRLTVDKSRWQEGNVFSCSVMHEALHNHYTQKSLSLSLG
light: NIVLTQSPASLAVSLGQRATISCRASESVESYGNSFIYWYQQKPGQAPKLLIYLASNLASGVPARFSGSGSRTDFTLTIDPVEADDAATYYCQQNNEDPYTFGGGTKLEIKRTVAAPSVFIFPPSDEQLKSGTASVVCLLNNFYPREAKVQWKVDNALQSGNSQESVTEQDSKDSTYSLSSTLTLSKADYEKHKVYACEVTHQGLSSPVTKSFNRGEC
notes: Expressed in HEK 293-FS; also called IgG4 mAb; Antibody
B2: in experiment [3], the “Static human platelet adhesion to collagen (PRP), IC50” value was 0.3 µg/mL and 6.7 nM; the “Static human platelet adhesion to collagen (washed plt), IC50” value is 0.017 µg/mL and 0.1 nM. Also, in experiment [4], the IC50 was 0.2 µg/mL and 1.5 nM. Also, in experiment [5], the Kd amounted to 1.35 nM, the koff was 0.00117 s⁻¹ and the kon came to 860000 M⁻¹ s⁻¹. Moreover, the IC50 in experiment [6] is 0.05 µg/mL and 0.3 nM.

B3: chimeric anti α2-integrin-Fab (6xHis tagged CH1 of human IGHG1) (Fab, V domains shown)
VH: QVQLHQPGAELVKPGAPVKLSCKASGYTFTSYWMNWVKQRPGRGLEWIGRIDPSDSETHYNQKFKDKATLTVDKSSSTAYIQLSSLTSEDSAVYYCAKVGRGYFDYWGQGTTLTVSS
VL: NIVLTQSPASLAVSLGQRATISCRASESVESYGNSFIYWYQQKPGQAPKLLIYLASNLASGVPARFSGSGSRTDFTLTIDPVEADDAATYYCQQNNEDPYTFGGGTKLEIKR
notes: also called Fab fragment; Fab frament
On to B3, for which, in experiment [3], the “Human platelet adhesion to collagen under shear (whole blood) 3000 s-1, IC50” value is 1.3 nM and 0.06 µg/mL; the “Static human platelet adhesion to collagen (PRP), IC50” value is 0.3 µg/mL and 6.7 nM; the “Static human platelet adhesion to collagen (washed plt), IC50” value was 0.04 µg/mL and 0.8 nM. Also, in experiment [7], the Kd was 0.84 nM, the koff worked out at 0.00083 s⁻¹ and the kon amounted to 990000 M⁻¹ s⁻¹. Further, the IC50 in experiment [8] was 0.4 µg/mL and 8.2 nM. In experiment [6], the IC50 was 0.2 µg/mL and 4.2 nM.

B4: humanized anti-α2-integrin mAb LC3/HC3 (antibody, IgG4, V domains shown)
VH: B3 VH with P17S, S116V
VL: B1 VL with A9S, A12S, P15V, T22S, P47A, N80D, E83Q, D85E, T87A, N89T
For the molecule B4, the “Inhibition of binding … to collagen, IC50” value in experiment [1] worked out at 0.012 µg/mL. Moreover, in experiment [2], the “Inhibition of binding of platelets” value worked out at 0.132 µg/mL.

B5: humanized anti-α2-integrin mAb LC3/HC4 (antibody, IgG4, V domains shown)
VH: B3 VH with P17S, V93K, S116V
VL: B1 VL with A9S, A12S, P15V, T22S, P47A, N80D, E83Q, D85E, T87A, N89T
Regarding B5, the “Inhibition of binding … to collagen, IC50” value in experiment [1] worked out at 0.016 µg/mL. The “Inhibition of binding of platelets” value in experiment [2] was 0.193 µg/mL.

B6: humanized anti-α2-integrin mAb LC1/HC1 (antibody, IgG4, V domains shown)
VH: B3 VH with R43Q, K67R, S116V
VL: B1 VL with A9S, P15V, T22S, Q46K, P47A, N80D, E83Q, T87A, N89T
Take B6: the “Inhibition of binding … to collagen, IC50” value in experiment [1] was found to be 0.021 µg/mL. The “Inhibition of binding of platelets” value in experiment [2] is 0.277 µg/mL.

B7: humanized anti-α2-integrin mAb LC2/HC2 (antibody, IgG4, V domains shown)
VH: B3 VH with R43Q, D55E, K67R, S116V
VL: B1 VL with A9S, P15V, T22S, N34Q, Q46K, P47A, N80D, E83Q, T87A, N89T
Consider B7, for which the “Inhibition of binding … to collagen, IC50” value in experiment [1] is 0.092 µg/mL. The “Inhibition of binding of platelets” value in experiment [2] stood at 3.96 µg/mL.

B8: humanized anti-α2-integrin mAb LC4/HC6 (antibody, IgG4, V domains shown)
VH: B3 VH with P17S, D55E, V93K, S116V
VL: NIVLTQSPSSLSVSVGQRATISCRASESVESYGQSFIYWYQQKPGQAPKLLIYLASNLASGVPARFSGSGSRTDFTLTIDPVQAEDAATYYCQQNNEDPYTFGGGTKLEIK
Regarding B8, the “Inhibition of binding … to collagen, IC50” value in experiment [1] was 0.068 µg/mL. Also, the “Inhibition of binding of platelets” value in experiment [2] stood at 4.11 µg/mL.

B9: humanized anti-α2-integrin mAb LC4/HC5 (antibody, IgG4, V domains shown)
VH: B3 VH with P17S, D55E, S116V
VL: B8 VL
Consider B9, for which, in experiment [1], the “Inhibition of binding … to collagen, IC50” value came to 0.057 µg/mL. Besides, the “Inhibition of binding of platelets” value in experiment [2] was 3.25 µg/mL.

B10: TMC2206, humanized hIgG4 anti-alpha 2 integrin antibody (comparator) (antibody, V domains shown)
VH: QVQLQESGPGLVKPSETLSLTCTVSGFSLTNYGIHWIRQPPGKGLEWLGVIWARGFTNYNSALMSRLTISKDNSKNQVSLKLSSVTAADTAVYYCARANDGVYYAMDYWGQGTLVTVSS
VL: DFVMTQSPAFLSVTPGEKVTITCSAQSSVNYIHWYQQKPDQAPKKLIYDTSKLASGVPSRFSGSGSGTDYTFTISSLEAEDAATYYCQQWTTNPLTFGQGTKVEIKR
Consider B10, for which the “Inhibition of binding … to collagen, IC50” value in experiment [1] was found to be 0.023 µg/mL. Further, in experiment [2], the “Inhibition of binding of platelets” value stood at 0.11 µg/mL.
